{"source": "patent US20250230234A1", "key": {"[1]": {"target": "human GPRC5D-human GPRC5A chimera (85-93) (human) (UniProt Q9NZD1)", "sequence (Q9NZD1 other isoform, or with tags, fused parts or gaps mutant)": "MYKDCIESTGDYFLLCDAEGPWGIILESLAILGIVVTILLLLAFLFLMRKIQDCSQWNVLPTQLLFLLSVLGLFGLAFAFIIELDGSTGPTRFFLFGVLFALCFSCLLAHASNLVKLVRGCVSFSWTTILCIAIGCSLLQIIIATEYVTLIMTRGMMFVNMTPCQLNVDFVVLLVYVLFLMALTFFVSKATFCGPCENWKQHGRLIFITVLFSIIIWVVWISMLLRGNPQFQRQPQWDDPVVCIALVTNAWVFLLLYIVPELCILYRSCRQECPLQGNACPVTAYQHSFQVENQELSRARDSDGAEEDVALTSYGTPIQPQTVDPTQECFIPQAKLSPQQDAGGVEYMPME", "test": "flow cytometry on FreeStyle 293-F cells expressing the chimera (aa85-aa93); negative control"}, "[2]": {"target": "human GPRC5D-human GPRC5A chimera (Nterm) (human) (UniProt Q9NZD1)", "sequence (Q9NZD1 other isoform, or with tags, fused parts or gaps mutant)": "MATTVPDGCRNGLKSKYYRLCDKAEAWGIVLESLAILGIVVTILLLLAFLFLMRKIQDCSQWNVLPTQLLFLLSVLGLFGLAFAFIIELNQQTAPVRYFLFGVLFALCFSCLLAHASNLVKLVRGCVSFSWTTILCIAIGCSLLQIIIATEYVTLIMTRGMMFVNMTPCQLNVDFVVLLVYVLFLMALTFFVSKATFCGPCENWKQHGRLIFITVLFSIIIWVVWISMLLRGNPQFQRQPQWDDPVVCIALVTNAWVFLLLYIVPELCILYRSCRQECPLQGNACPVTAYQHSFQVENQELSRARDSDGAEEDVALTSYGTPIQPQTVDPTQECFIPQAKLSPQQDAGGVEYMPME", "test": "flow cytometry on FreeStyle 293-F cells expressing the chimera (Nter); negative control"}, "[3]": {"target": "human GPRC5D (full length, on cells) (human) (UniProt Q9NZD1)", "sequence (Q9NZD1 whole entry)": "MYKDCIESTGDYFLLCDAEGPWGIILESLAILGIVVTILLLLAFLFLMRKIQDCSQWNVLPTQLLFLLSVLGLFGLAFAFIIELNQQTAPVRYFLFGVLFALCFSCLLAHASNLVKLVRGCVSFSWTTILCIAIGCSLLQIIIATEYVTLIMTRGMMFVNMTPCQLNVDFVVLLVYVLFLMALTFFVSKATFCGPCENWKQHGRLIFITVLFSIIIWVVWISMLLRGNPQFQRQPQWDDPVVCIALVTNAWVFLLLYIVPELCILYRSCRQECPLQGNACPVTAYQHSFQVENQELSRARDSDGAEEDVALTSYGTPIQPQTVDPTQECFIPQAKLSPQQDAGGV", "test": "flow cytometry on FreeStyle 293-F cells expressing hGPRC5D; negative control"}, "[4]": {"target": "human GPRC5D-human GPRC5A chimera (145-167) (human) (UniProt Q9NZD1)", "sequence (Q9NZD1 other isoform, or with tags, fused parts or gaps mutant)": "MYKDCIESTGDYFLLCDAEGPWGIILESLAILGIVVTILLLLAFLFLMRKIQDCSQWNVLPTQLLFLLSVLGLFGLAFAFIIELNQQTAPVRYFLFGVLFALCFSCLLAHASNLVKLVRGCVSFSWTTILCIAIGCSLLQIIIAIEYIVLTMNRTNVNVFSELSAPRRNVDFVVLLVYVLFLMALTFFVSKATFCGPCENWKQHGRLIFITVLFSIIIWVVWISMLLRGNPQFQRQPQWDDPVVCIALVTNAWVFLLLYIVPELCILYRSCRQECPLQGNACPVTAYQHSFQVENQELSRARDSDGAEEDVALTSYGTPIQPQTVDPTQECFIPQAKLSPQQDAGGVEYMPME", "test": "flow cytometry on FreeStyle 293-F cells expressing the chimera (aa145-aa167); negative control"}, "[5]": {"target": "human GPRC5D-human GPRC5A chimera (226-239) (human) (UniProt Q9NZD1)", "sequence (Q9NZD1 other isoform, or with tags, fused parts or gaps mutant)": "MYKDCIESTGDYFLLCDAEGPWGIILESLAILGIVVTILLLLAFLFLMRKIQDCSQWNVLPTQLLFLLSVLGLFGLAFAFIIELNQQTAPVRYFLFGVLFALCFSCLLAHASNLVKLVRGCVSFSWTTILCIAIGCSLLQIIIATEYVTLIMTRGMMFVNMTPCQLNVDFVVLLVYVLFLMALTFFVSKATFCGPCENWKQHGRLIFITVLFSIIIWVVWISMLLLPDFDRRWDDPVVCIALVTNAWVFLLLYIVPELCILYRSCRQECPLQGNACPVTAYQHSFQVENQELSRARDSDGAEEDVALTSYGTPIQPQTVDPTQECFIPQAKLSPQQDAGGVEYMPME", "test": "flow cytometry on FreeStyle 293-F cells expressing the chimera (aa226-aa239); negative control"}}}
{"substance": "Isotype control IgG1 in wildtype format (antibody to an irrelevant small molecule target)", "values": [{"measurement": "MFI", "setting": "[1]", "value": 29700}, {"measurement": "MFI", "setting": "[2]", "value": 24700}, {"measurement": "MFI", "setting": "[3]", "value": 27400}, {"measurement": "MFI", "setting": "[4]", "value": 32500}, {"measurement": "MFI", "setting": "[5]", "value": 29800}]}
